# No end group written: not given here. Cy3 = Cy3 fluorescent dye label
# How the values were obtained:
# MyD88-Cer = target: T1, MyD88-Cer (UniProt Q99836 155-296); assay: FRET-FLIM in HeLa cells expressing the Cer fusion, Cy3-peptide 1 h
# T1 construct: The vector is 'described previously'; Expressed in HeLa cells; also called MyD88 TIR-Cer; Cer-labeled MyD88 TIR; not shown: Cerulean fluorescent protein (Cer)
# Procedure: (§1) To identify potential binding partners of inhibitory peptides a FRET approach coupled with Fluorescence Lifetime Imaging Microscopy (FLIM) was used. HeLa cells were transiently transfected with an expression vector that encodes a TIR domain fused with Cerulean fluorescent protein (Cer). Cells were treated with various concentrations of a Cy3-labeled inhibitory peptide 48 hours after transfection. Cy3 is a suitable FRET acceptor for Cer fluorescence. A direct molecular interaction of a Cy3-labeled peptide with Cer-fused TIR domain should quench Cer fluorescence, leading to a decreased fluorescence lifetime.
# (§2) A progressive shift of average fluorescence lifetime towards lower values observed with increasing peptide concentrations indicates the binding between donor and acceptor moieties. […] FRET efficiencies presented in FIG. 13 were calculated from the average lifetimes corresponding to entire images that contained multiple cells as in images shown in FIG. 11, using data obtained in three independent experiments. […]
# (§3) The strongest peptide-induced quenching was detected for the TLR9 TIR-Cer-expressing cells treated with Cy3-9R34-ΔN. This peptide quenched the TLR9 TIR-Cer fluorescence dose-dependently with FRET efficiency varying in the range of 9-23% (FIG. 13). […]
# TRAM-Cer = target: T2, TRAM-Cer (UniProt Q86XR7 1-235); assay: as above
# T2 construct: Control construct expressed in HeLa cells; not shown: Cerulean fluorescent protein (Cer)
# T2 sequence (Q86XR7 whole entry): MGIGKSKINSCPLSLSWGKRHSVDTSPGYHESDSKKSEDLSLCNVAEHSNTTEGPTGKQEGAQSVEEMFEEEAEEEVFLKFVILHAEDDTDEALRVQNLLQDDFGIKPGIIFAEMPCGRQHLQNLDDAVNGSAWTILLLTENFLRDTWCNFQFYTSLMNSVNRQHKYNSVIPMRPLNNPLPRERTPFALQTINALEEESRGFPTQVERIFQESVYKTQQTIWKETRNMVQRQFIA
# Procedure: as §1, §2, §3
# T1 sequence (Q99836 155-296): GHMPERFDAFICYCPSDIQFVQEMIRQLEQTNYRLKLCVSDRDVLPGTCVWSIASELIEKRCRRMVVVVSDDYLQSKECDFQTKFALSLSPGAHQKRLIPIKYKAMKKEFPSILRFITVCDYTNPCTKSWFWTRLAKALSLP
binder,measurement,setting,value
Cy3-RQIKIWFQNRRMKWKKALRLCLEERD (Cy3-labeled cell-permeating decoy peptide (CPDP); also called 9R34-ΔNa; peptide from Surface 1 (S1) of TLR9) [Cy3-9R34-ΔN],binding result,MyD88-Cer,no binding (tested: 2.5 and 10 µM)
same,binding result,TRAM-Cer,no binding (tested: 40 µM)

# From patent US20210087231A1 (UNIVERSITY OF MARYLAND BALTIMORE, published 2021)
